The text below walks through data of article PMC9242859.

This experiment concerns the target C-terminally TAMRA-conjugated and N-terminally myristoylated preS1 peptide, amino acids 2-48 of the preS1 region (preS1 probe). Put plainly: preS1 binding assay (fluorescent preS1 probe attachment to cells, fluorescence imaging). The conditions noted are these: Huh7 cells transiently expressing wild-type or mutant NTCP; parent: est. 1.0; read off a plot.

“wild-type NTCP transiently expressed in Huh7 cells (from UniProt Q14973) R84A; N87A”: the ratio to parent (fold vs control) stood at 0.46.
To “wild-type NTCP transiently expressed in Huh7 cells (from UniProt Q14973) R143A; D147A” belongs 1.1.
